Substrate in this data set: CC(=O)N[C@H]1[C@H]([C@H](O)[C@H](O)CO)O[C@](OP(=O)(O)OC[C@H]2O[C@@H](n3ccc(N)nc3=O)[C@H](O)[C@@H]2O)(C(=O)O)C[C@@H]1O
Briefly: Binding affinity to recombinant human N-terminal 6His-tagged ST6Gal-1 (Glu44 to Cys406 residues).

B1: Beta-galactoside alpha-2,6-sialyltransferase 1 (Homo sapiens), P15907 (protein)
chain: MIHTNLKKKFSCCVLVFLLFAVICVWKEKKKGSYYDSFKLQTKEFQVLKSLGKLAMGSDSQSVSSSSTQDPHRGRQTLGSLRGLAKAKPEASFQVWNKDSSSKNLIPRLQKIWKNYLSMNKYKVSYKGPGPGIKFSAEALRCHLRDHVNVSMVEVTDFPFNTSEWEGYLPKESIRTKAGPWGRCAVVSSAGSLKSSQLGREIDDHDAVLRFNGAPTANFQQDVGTKTTIRLMNSQLVTTEKRFLKDSLYNEGILIVWDPSVYHSDIPKWYQNPDYNFFNNYKTYRKLHPNQPFYILKPQMPWELWDILQEISPEEIQPNPPSSGMLGIIIMMTLCDQVDIYEFLPSKRKTDVCYYYQKFFDSACTMGAYHPLLYEKNLVKHLNQGTDEDIYLLGKATLPGFRTIHC
Regarding B1, the Michaelis-Menten constant (Km) is 37.2 µM.

(Values after ChEMBL document CHEMBL4725261, “Design, synthesis and evaluation of carbamate-linked uridyl-based inhibitors of human ST6Gal I” (Bioorg Med Chem, 2020).)
